For assay [1], the target named is LRP6 expressed on HEK cells transfected with the LRP6 plasmid. As to the kind of experiment: Dkk1-AP conditioned medium on LRP6-transfected HEK cells, AP activity in cell lysate, wild type = 100%.
Assay [2] shares this target. Put plainly: binding of Dkk1 to LRP6, assay not described for this mutant (data not shown).

Where a chain is given by its changes, count along the chain named. In names and notes the source's numbering stands.

B1: mouse Dkk1-AP mutant H210E (ligand, UniProt O54908 32-272, looked up, not shown: large carriers)
chain: TLNSVLINSNAIKNLPPPLGGAGGQPGSAVSVAPGVLYEGGNKYQTLDNYQPYPCAEDEECGSDEYCSSPSRGAAGVGGVQICLACRKRRKRCMRHAMCCPGNYCKNGICMPSDHSHFPRGEIEESIIENLGNDHNAAAGDGYPRRTTLTSKIYHTKGQEGSVCLRSSDCAAGLCCAREFWSKICKPVLKEGQVCTKHKRKGSHGLEIFQRCYCGEGLACRIQKDHHQASNSSRLHTCQRH
As for B1, in assay [1], the reduction of binding to LRP6 against wild-type Dkk1 was greater than 50%.

B2: Dkk1 mutant L266A (ligand, mouse, UniProt O54908 32-272, looked up, not shown: large carriers)
chain: B1 chain with E179H, L235A
B2 showed a reduction of binding to LRP6 against wild-type Dkk1 in assay [2] of 40%.

B3: mouse Dkk1-AP mutant K217E (ligand, UniProt O54908 32-272, looked up, not shown: large carriers)
chain: B1 chain with E179H, K186E
With B3, in assay [1], the reduction of binding to LRP6 against wild-type Dkk1 was greater than 50%.

B4: mouse Dkk1-AP mutant H267E (ligand, UniProt O54908 32-272, looked up, not shown: large carriers)
chain: B1 chain with E179H, H236E
B4 yielded a reduction of binding to LRP6 against wild-type Dkk1 in assay [1] of 43%.

B5: mouse Dkk1-AP mutant R242E (ligand, UniProt O54908 32-272, looked up, not shown: large carriers)
chain: B1 chain with E179H, R211E
Consider B5, for which the reduction of binding to LRP6 against wild-type Dkk1 in assay [1] is greater than 50%.

These data come from US20090312253A1.
